These results are taken from paper PMC9723548, “Sulfate adenylyl transferase kinetics and mechanisms of metabolic inhibitors of microbial sulfate respiration” (ISME Communications, 2021).

For data set [1], the target named is T1, sulfate adenylyl transferase (Sat) / ATP sulfurylase (Oleidesulfovibrio alaskensis, UniProt Q30Z34).
T1 construct: gene Dde_2265
T1 sequence (Q30Z34 1-427): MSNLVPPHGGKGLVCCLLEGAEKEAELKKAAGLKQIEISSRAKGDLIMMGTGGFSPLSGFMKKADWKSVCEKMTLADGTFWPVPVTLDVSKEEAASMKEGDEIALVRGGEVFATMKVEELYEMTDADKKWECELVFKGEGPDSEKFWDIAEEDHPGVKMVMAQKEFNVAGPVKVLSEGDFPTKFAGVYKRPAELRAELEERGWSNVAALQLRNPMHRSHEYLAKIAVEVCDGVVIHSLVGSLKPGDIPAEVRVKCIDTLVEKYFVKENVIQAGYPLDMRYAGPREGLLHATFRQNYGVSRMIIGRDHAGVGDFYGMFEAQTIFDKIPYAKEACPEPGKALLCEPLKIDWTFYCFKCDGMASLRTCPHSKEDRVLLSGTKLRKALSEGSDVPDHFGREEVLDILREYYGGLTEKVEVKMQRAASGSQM
As to the kind of experiment: pyrophosphate accumulation, modified molybdenum blue assay.

Substrate in data set [2]: [O]=[Cr](=[O])([OH])[OH]
As to the kind of experiment: purified protein. The note with it: alternative substrate in place of sulfate; co-substrate ATP.

Substrate in data set [3]: O=[Se](=O)(O)O
The experiment in a line: purified protein.

By Ki is commonly meant a dissociation constant, usually derived from enzyme kinetics or from competition with a known ligand. In the case of `[O-][Cl+2]([O-])O` [ClO3^−], the affinity in data set [1] corresponds to a Ki of 316 ± 17 µM.
As to `O=[N+]([O-])O` [NO3^−], the affinity in data set [1] corresponds to a Ki of 3600 ± 270 µM.

B1: sulfate adenylyl transferase (Sat) / ATP sulfurylase (Oleidesulfovibrio alaskensis G20) (protein)
chain: MSNLVPPHGGKGLVCCLLEGAEKEAELKKAAGLKQIEISSRAKGDLIMMGTGGFSPLSGFMKKADWKSVCEKMTLADGTFWPVPVTLDVSKEEAASMKEGDEIALVRGGEVFATMKVEELYEMTDADKKWECELVFKGEGPDSEKFWDIAEEDHPGVKMVMAQKEFNVAGPVKVLSEGDFPTKFAGVYKRPAELRAELEERGWSNVAALQLRNPMHRSHEYLAKIAVEVCDGVVIHSLVGSLKPGDIPAEVRVKCIDTLVEKYFVKENVIQAGYPLDMRYAGPREGLLHATFRQNYGVSRMIIGRDHAGVGDFYGMFEAQTIFDKIPYAKEACPEPGKALLCEPLKIDWTFYCFKCDGMASLRTCPHSKEDRVLLSGTKLRKALSEGSDVPDHFGREEVLDILREYYGGLTEKVEVKMQRAASGSQM
In general, Km refers to the concentration of substrate that gives half-maximal velocity. The kcat is the number of substrate molecules converted per active site and unit of time at saturation. By kcat/Km is commonly meant the second-order rate constant that governs catalysis at low substrate concentration. Turning to B1, in “purified protein [2]”, the Km turned out to be 793 ± 140 µM, the turnover number (kcat) turned out to be 16 s⁻¹ and the kcat/Km came out at 20000 M⁻¹ s⁻¹. In addition, in the data set “purified protein [3]”, the Km is 1770 ± 550 µM and the kcat/Km is 160 M⁻¹ s⁻¹.
